Patent US20260258125A1

Experiments:
[1] = molecular target: membrane-bound endogenous human CEACAM5 and CEACAM6 on BxPC3 cells; experiment: flow cytometry on BxPC3 cells with against without 100 nM soluble CEACAM6
[2] = molecular target: membrane-bound endogenous human CEACAM5 and CEACAM6 on LS 174T cells; experiment: flow cytometry on LS174T cells with against without 100 nM soluble CEACAM6
[3] = molecular target: membrane-bound endogenous human CEACAM5 and CEACAM6 on A549 cells; experiment: flow cytometry on A549 cells (printed over the panel: CEACAM5-, CEACAM6+), MFI

B1: PR303563 (Tinurilimab) (antibody, human IgG2, kappa, V domains shown)
VH: QVTLRESGPALVKPTQTLTLTCTFSGFSLSTYGIGVGWIRQPPGKALEWLAHIWWNDNKYYSTSLKTRLTISKDTSKNQVVLTMTNMDPVDTATYYCARISLPYFDYWGQGTTLTVSS
VL: DIQLTQSPSFLSASVGDRVTITCKASQNVGTAVAWYQQKPGKAPKLLIYSASNRYTGVPSRFSGSGSGTEFTLTISSLQPEDFATYYCQQYSSYPLTFGGGTKVEIKR
fold change of EC50 at the presence of 100 nM soluble protein [1]: 4.1 fold
fold change of EC50 at the presence of 100 nM soluble protein [2]: 6.9 fold
EC50 (read off the curve) [3]: 0.1 nM
